Assay: yeast display, Sf9 membrane polyspecificity reagent, FACS + sequencing; frameworks hold sequencing errors
In short: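 A synthetic nanobody library was expressed on Saccharomyces cerevisiae BJ5465 by galactose induction for 36–48 hours. The library was stained for 1 hour at 4 °C with 10% biotinylated, detergent-solubilized Sf9 membrane reagent and enriched with streptavidin microbeads before FACS. Low and high (top ~1%) gates were set on anti-HA fluorescence for expression and streptavidin fluorescence for reagent binding, and each polyreactivity label reflects the gate of origin.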

QVQLVESGGGLVQAGGSLRLSCSASGSTFFIYAMGWYRQAPWKERELVAAIRSGGTYYADSVKGRFTISRDNAKITVYLQMKSLKPEDTAVYYCAARTRGFRYYYWGQGTQVTVSS
polyreactivity (PSR sort gate): high polyreactivity

QVQLVESGGGLVQAGGSLRLSCAASGYIFDPNAMGWYRQAPGKERELVAAISGSGTSTYYADSVKGRFTISRDNAKNTVYLQMNSLKPEDTAVYYCAAAHDAGPVRYYYWGHGTQVTVSS
polyreactivity (PSR sort gate): low polyreactivity

QVQHVESGGGLVQAGGSLRLSCAASGFTFRWYTMGWYRQAPGKERELVASIRYGGGSTYYADSVKGRFTISRDNAKNTVYLQMNSLKPEDTAVYYCAAESAWTSPYDYWGQGTQVTVSS
polyreactivity (PSR sort gate): high polyreactivity

QVQLVESGGGLVQAGGSLRLSCAASGLTFYPYTMGWYRQAPGKERELVAAISSGGSTYYADSVKGRFTISRDNAKNTVYLQMNSLKPEDTAVYYCAARYPYFSYGYWGQGTQVTVSS
polyreactivity (PSR sort gate): high polyreactivity

QVQLVESGGGLVQAGGSLRLSCAASGFTFFVYGMGWYRQAPGKERELVATINWSGASTYYADSVKGRFTISRDNAKNTVYLQMNSLKPEDTAVYSCAKDGHYPLVYLAFDYWGQGTQVTVSS
polyreactivity (PSR sort gate): low polyreactivity

QVQLVESGGGLVQAGGSLRLSCAASGYTFGIYAMGWYRQAPGKAREFVAAIRWSDTSTSYADSVKWRFTISRDNAKNTVYLQMNSLKPEDTAVYNCAADTFYLYDYWGQGTQVTVSS
polyreactivity (PSR sort gate): low polyreactivity

QVQLVESVGGLVQAGGSLRLSCAASGFIFWDNAMGWYRQAPGKERELVAAISKSGTRTYYADSVKGRFTISRDNAKNTVYLQMNSLKPEDTAVYSCAAEGSGYEYYYWGQGTQVTVSS
polyreactivity (PSR sort gate): high polyreactivity

QVQLVESGGGLVQAGGSLRLSCAASGSTFSGYAMGWYRQAPGKERELVAAITRSGGSTYYADSVKGRFTISRDNAKNTVYLQMNSLKPEDTAVYYCNVYFGYWVPTSTYYWSWDDYWGQGTQVTVSS
polyreactivity (PSR sort gate): low polyreactivity

QVQHVESGGGLVQAGGSLRLICAASGIIFDYNAMGWYRQAPGKERELVATNNDSGGSTSYAYSVKGRFTISRDKAKNTVYLQMNCLKPDDTAVYYCAVLPVYWYWRNYVYLSGYDYWGQGSQVTVSS
polyreactivity (PSR sort gate): low polyreactivity

QVQLVESGGGLVQAGGSLRLSCAASGSTFFAYAMGWYRQAPGKERELVAAITGRGSTYYADSVKGRFSISRDNAKNTVYLQMNSLKPEDTAVYYCAAQRSRRYYRLDYWGQGTQVTVSS
polyreactivity (PSR sort gate): high polyreactivity

QVQLVESGGCLVQAGGSLRLSCAASGYTIRYYSMGWYRQAPGKERELVAAISYSGGSTYYADSVKGRFTISRDNAKNTVYLQMNIMKPEDTAVYYCDAGFSLYLGFEYWGQGTQVTVSS
polyreactivity (PSR sort gate): high polyreactivity

QVQLVESGGGLVQAGGSLRLSCAATGFIFGYYALGGYRQAPGKERELVAAINKNGGSTYYADSVKGRFTISRDNAKNTVYLQMNSLKPEDTAVYYCAARARGYAWTYDYWGQGTQVTVSS
polyreactivity (PSR sort gate): high polyreactivity

QVQLVESGGGLVQAGGSLRLSCAASGSIFAYYAMGWYRQAPGKERELVAVIRSGGSTYYADSVKGRFTISRDNEKNTVYLQMNSLNPEDTAVYYCAAPSYRPSRGDYWGQGTQVTVSS
polyreactivity (PSR sort gate): high polyreactivity

QVKLVESGGGLVQAGGSLRLSCAASGSIFTYTIGWYRQAPGKESELVAVISRSGGRTYYADSVKGRFTISRDNAKNTVYLQMNSLKPEDTAVYYCAAEYYVDYYRTSRSFTRWRYEYWGQGTQVTVSS
polyreactivity (PSR sort gate): high polyreactivity

QVQLVESGGGLVQAGGSLRLSCAASGFIFNLYAMGWYRQAPGKERELVAAISSGGGTSYADSVKGRFTISRDNAKNTVYLQMNSLKPEDTAVYYCAAGYKRRYYWKGYTRYDYWGQGTQVTVSS
polyreactivity (PSR sort gate): high polyreactivity

QVQLLESGGGFVQAGGSLRLSCAASGQTFHGNTMGWYRQAPGKERELVAAISFDGGNTYADSVKGRFTKSRDNAKTSVYLHMNSLKPEDSAVYYDYWGPGTQVTVSS
polyreactivity (PSR sort gate): low polyreactivity

QVQLVESGGGLVQAGGSLRLSCAASGSTFDNYAMGWYRQAPGKERELVAAINSRGGRTYYADSVKGRFTISRDNAKNTVYLQMNSLKPEDTAVYYCAAVGATHRFDYWGQGTQVTVSS
polyreactivity (PSR sort gate): high polyreactivity

QVQLVESGGGLVQAGGSLRLSCAASGRTFYTYAMGWYRQAPGKERELVAAISISGSRTYYADSVKGRFTISRDNAKNTVYLQMNSLKPEDTAVYYCAADRSYWAYVFQYVSYGEDYWGQGTQVTVSS
polyreactivity (PSR sort gate): high polyreactivity

QVQLVESGGGLVQAGGSLRLSCAASGSTFDVNTMGWYRQAPGKERELVAAIRLRGGSTYYADSVKGRFTISRDNAKNTVYLQMYSLKPEDTEVSYCAADYTLIYDYWGQGTQVTVSS
polyreactivity (PSR sort gate): low polyreactivity

QVQLVESGGGLVQAGGSLRLSCAASGSTLVIYAMGWYRQAPGKERELVAAINFSDGSTSYADSVKGRFSISRDNAKNTVYLQMNRLKPEDTAVYYLGQGTQVTVSS
polyreactivity (PSR sort gate): low polyreactivity

QVQLVESGGGLVQAGGSLRLSCAASGFIFADYAMGWYRQAPGKERELVAAITRSGGRTYYADSVKGRFTISRDNAKNTVYLQMNSLKPEDTAVYYCAAVGPGRRRDYWGQGTQVTVSS
polyreactivity (PSR sort gate): high polyreactivity

QDQLVESGGGLVQAGGSHRLSCAASGSTFGVNDMGWYRQAPGKERELVARITGGGSTYYADSVKGRFTISRDNAKNTVYLQMNSLKPEDTAVYYCNAAFWAPQATGYYYWGQGTQVTVSS
polyreactivity (PSR sort gate): low polyreactivity

QVQLVESGGGLVQAGGSLRLSCAASGFTFLKNAMGWYRQAPGKERELVAAITGSGGSTYYADSVKGRFTISRDNAKNTVYLQMNSLKPEDTAVYYCNVRRGLRAYEYWGQGTQVTVSS
polyreactivity (PSR sort gate): high polyreactivity

QVQLVESGGGLVQAGGSLRLSCAASGSIFRYYGMGWSRQAPGKERELVAAITWRGSSTYYADSVKGRFTISRDNAKNSVYLQMNSLNPEDTAVYYCAAYSASYGGYDYWGQGTQVTVSS
polyreactivity (PSR sort gate): high polyreactivity

QVQLVESGGGLVQAGGSLRLSCAASGRTFSSNTMGWYRQAPGKERELVAAIDWSGGRTYYADSVKGRFTISRDNAKNTVYLQLNSLKPEDTEVYYCARSRSYWGIVYGRYDYWGQGTQVTVSS
polyreactivity (PSR sort gate): high polyreactivity

QVQLVETGGGLVQAGGSLRLSCAASGFTIWKYAMGWYRQAPGKERELVAAISLGGGRTYYADSVKGRFTISRDNANNTVYLQMNSLKPEDTAVYYCNAKIVSSVLYDYWGQGNQVTVSS
polyreactivity (PSR sort gate): low polyreactivity

QVQLVESGGGLVQAGGSLRLSCAASGFILYRNAMGWYRQAPGKERELVAAISRNGGSTYYADSVKGRFTISRDNAKNTFYLQMNSLKPEDTAVYYCAARTVGRKAGFDYWGQGTQVTVSS
polyreactivity (PSR sort gate): high polyreactivity

QVQIVESGGGLVQAGGSLRLSCAASGSTYDTYAMVWYRQAPGKERELVAGITRRGGRTYYADSVKGRFTISRDNAKNTVYLQMISLKPEDTAVYYCAARTYGYYLYDYWGQGSQVTVSS
polyreactivity (PSR sort gate): high polyreactivity

QVQLVESGGGLVQAGGSLRLSCAASGSTFHLNAMGWYIQAPGKERELVAAISLSGGSTYYADSVKGRFTISRDHAKNTVYLQMNSLKPEYTAVYYCAAEQWYDNYLEYDYWGQGTEVTVSS
polyreactivity (PSR sort gate): high polyreactivity

QDHLVESGGGLVQAGGSLRLSCAASGSPFPSYAMGWYRQAPGKERELVAAINSGGGTTYADSVQGRFTISRDKAKNTVYLQMNSLKPEDTAVYYCARGPLSWHSYVEAEYGYWGQGTQVTVSW
polyreactivity (PSR sort gate): low polyreactivity

QVQLEESGGGLVQAGGSLRLTCAACGSIFGPNAMGWYRQAPGKERELVAAIDSSDGSTYYADSVKGRFTISRDNAKNSVYLQMNSLKPEDTAVYYCADELGYIYYSYWWQYDYWGQGTQVTVSS
polyreactivity (PSR sort gate): high polyreactivity

QVQLVESGGGLVQAGGSLRLSCAASGGNLPYNVMGRYRQAPGKEWELVAAITSGVNTNYADSVKGRFTISRDNAKNTVYLQMNSLKPEDTAVYYCAARSGGPSDGSGYWGQGTQVTVSS
polyreactivity (PSR sort gate): low polyreactivity
